Tests used:
[1] = molecular target: T1, recombinant LG4/5 fragment of chain alpha3 of human laminin-5 (human, UniProt Q16787 2981-3333, limits assumed); assay: Western blot of the purified recombinant LG4/5 fragment
T1 construct: Recombinantly expressed and purified on heparin as in Okamoto et al. 2003; also called alpha3LG4/5 fragment; LG4/5 domain
T1 sequence: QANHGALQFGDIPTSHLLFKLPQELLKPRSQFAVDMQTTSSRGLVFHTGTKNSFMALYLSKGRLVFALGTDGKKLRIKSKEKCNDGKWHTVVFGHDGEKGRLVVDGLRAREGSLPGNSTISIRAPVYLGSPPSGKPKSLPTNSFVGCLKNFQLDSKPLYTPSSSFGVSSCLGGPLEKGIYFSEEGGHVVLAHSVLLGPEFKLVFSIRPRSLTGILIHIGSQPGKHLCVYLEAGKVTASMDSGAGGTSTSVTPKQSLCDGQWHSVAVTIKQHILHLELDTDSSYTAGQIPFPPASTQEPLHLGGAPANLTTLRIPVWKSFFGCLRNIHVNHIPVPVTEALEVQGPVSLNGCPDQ

[2] = molecular target: T2, mature form of alpha3 lacking the LG4/5 domain (human, UniProt Q16787-1 28-1348, limits assumed); assay: Western blot of purified LN5, reducing SDS-PAGE
T2 construct: domain: mature form of alpha3 lacking the LG4/5 domain; Alpha3 subunit of LN5 purified from keratinocyte culture medium, reducing SDS-PAGE; also called alpha3 chain of mature LN5
T2 sequence (looked up): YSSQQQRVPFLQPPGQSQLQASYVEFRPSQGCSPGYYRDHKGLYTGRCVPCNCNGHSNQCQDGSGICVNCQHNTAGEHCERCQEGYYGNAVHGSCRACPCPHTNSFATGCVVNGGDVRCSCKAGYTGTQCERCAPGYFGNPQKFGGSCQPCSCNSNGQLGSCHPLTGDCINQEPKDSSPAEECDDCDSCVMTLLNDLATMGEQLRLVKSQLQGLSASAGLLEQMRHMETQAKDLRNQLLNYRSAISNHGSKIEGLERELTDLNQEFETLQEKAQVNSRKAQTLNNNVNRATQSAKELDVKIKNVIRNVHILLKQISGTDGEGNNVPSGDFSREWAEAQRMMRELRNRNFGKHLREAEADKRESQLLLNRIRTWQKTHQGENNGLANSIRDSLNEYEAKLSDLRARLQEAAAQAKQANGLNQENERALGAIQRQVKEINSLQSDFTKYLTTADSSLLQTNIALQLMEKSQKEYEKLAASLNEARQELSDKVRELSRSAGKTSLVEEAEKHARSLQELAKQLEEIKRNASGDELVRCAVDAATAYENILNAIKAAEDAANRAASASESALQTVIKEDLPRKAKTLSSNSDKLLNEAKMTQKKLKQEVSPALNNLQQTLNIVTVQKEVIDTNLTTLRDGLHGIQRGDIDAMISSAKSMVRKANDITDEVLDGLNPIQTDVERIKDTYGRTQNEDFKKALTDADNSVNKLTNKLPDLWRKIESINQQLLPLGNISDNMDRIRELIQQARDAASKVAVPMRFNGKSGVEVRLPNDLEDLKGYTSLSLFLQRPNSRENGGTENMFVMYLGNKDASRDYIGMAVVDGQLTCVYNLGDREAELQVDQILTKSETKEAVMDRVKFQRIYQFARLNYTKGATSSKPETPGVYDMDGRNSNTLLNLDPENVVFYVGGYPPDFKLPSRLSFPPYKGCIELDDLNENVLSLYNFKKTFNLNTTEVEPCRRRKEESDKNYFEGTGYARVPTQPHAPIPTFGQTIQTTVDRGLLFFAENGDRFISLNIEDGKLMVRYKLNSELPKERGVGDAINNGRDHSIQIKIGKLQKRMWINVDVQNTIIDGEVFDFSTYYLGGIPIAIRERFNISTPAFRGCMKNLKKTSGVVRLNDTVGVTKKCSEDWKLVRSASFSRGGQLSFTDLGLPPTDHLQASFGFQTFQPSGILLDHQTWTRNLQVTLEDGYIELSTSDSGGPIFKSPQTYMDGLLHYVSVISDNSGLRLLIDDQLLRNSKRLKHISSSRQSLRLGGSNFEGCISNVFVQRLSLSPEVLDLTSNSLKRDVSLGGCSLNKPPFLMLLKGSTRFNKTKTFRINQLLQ

B1: 1H12 monoclonal antibody produced by the hybridoma cell line named 1H12 (C.N.C.M. I-3890) (antibody, V domains shown)
VH: VKLQQSGPELVKPGASVKISCKTSGYTFTEYTIHWVKQSHGKTLEWIGGINPKNGDTSYNQKFKGKATLTVDKSSNTAYMEFRSLTSEDSAVYYCASPDLPPMDYWGQGTTVTVSS
VL: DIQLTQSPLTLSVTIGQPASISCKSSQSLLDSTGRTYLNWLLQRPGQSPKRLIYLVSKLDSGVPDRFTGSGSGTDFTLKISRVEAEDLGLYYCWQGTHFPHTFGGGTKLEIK
notes: Mouse IgG1 kappa from hybridoma (supernatant or ascites); Ends of the V domains come from PCR primers; also called 1H12 mAb; mAb 1H12
binding result [1]: binds | binding result [2]: no binding

Source: patent publication US20120034229A1 (UNIVERSITE CLAUDE BERNARD LYON 1, published 2012)
